Test: label from the status in PepcDB records
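Note: failed if final PepcDB status was selected cloned or expressed and not failed if soluble or beyond.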

Row | Sequence | protein production
1 | MTAPAICNTTETVHGIATSLGAVARQASLPRIVGTVVGITVLVVVALLVPVPTAVELRDWAKSLGAWFPLAFLLVHTVVTVPPFPRTAFTLAAGLLFGSVVGVFIAVVGSTASAVIAMLLVRATGWQLNSLVRRRAINRLDERLRERGWLAILSLRLIPVVPFAAINYAAGASGVRILSFAWATLAGLLPGTAAVVILGDAFAGSGSPLLILVSVCTGALGLTGLVYEIRNYRRQHRRMPGYDDPVREPALI | failed
2 | MVLSVVVVGKPRCRSIAVAARERLHRYGEYPMSSNNASGKVVSVDEQAFENAGEQAADEDGFPVVDETPEFEAAVEQETQAKVDANHPDGIADTSEDRIHGVTLEQEERIRAREAELERISAQAELGTQDGREQRTRDIAAKRSAVRRAEFQTRAASVDPMADPERDDPRAELTQEQLAAVNKQSMRLAEKLDGWSRAAIGRRLGEAVVGGKDVTSAVVGVFEELQTAPGTVIPIGKLEDVNRKEVSIEGTVTRLWKPSSAAISQVGLIEDESGKTKFTSWVASEQPWIEEGEHVRIHGAAKNWYNGRVSVALTGWSTVHFPERGRWWEALEHHHHHH | failed
3 | MSLISIFIPEILLVIMGFIVLAVGMFIQSGKASAAISFITLIAALLSVFFIPYDSSYGITVNKFSVYFSAVLIISALFISLPMYRYVKKRPEVFYASLIFSVIGMVIVAMTWNLVIAFVAFESVSIMTYIMSAYGGKQRNLEATIKYFFTGTIATTFIILGIGFYFFSVHTFSLSPVLNGSSISYYSGTKPEFLLALLFLLIGFGFKLAIFPMHQWAIDAYDGTENGVSAYLSTGTKIMAFVLVLKIFLVGFQSFPTPVYYMFTIIAIITMTYANVAALSQMNVKRLLAYSSVAQAGYMILVISVVSYVGLGSARSVSLAIAAGMFYALVYVFMKGGSFIAMNMVKEDNITFENISGLGKKSPYVAASFSILLLSLAGIPLTGGFLAKYFLFLSVIDSGLWWLAIIAIINSAISVFYYMKVMRYLFWEEPKGEFSTDMGNKAAVIVSAAIVVFLGVFYVLFPVLVGISSQIVG | failed
4 | MVTDADYRELRGATETPREAVVVGLAGEVGLTSAEIPRVRPCDVAPHDHDGVTHYFLAVPGADGGSDRDAYLPPAVERDIRRRADAAGLADDDPLVDVSARRVQTLVNAVAGRTDTAGLDGVAAQDLRSFFARRLLTGAGVDPRVVAAVGGWSRLASLDQYAAVDALEHHHHHH | failed
5 | MADNINESEIIERLNSAPSVRGFFIATVDVFNESIDGLIQRIFRKDNFAVQSVVGPLLQDSGPLGDLSVRLKLLFGLGVLPDDIYHDIEDIIKLKNHLNSDASDYEFTDPNILEPIKKLHLVKKMGMVQLEVNEPDDDIDLEFYQLQLQRQQQIIKSGLSLAIVEICNELGK | not failed
6 | TTLASIGKDIIEDADGIAMPHQWLEGNLPVSAKCTVCDKTCGSVLRLQDWRCLWCKAMVHTSCKESLLTKC | not failed
7 | MSLRTQLIAVLIDDYSNPWFIDLIQSLSDVLTPKGYRLSVIDSLTSQAGTDPITSALSMRPDGIIIAQDIPDFTVPDSLPPFVIAGTRITQASTHDSVANDDFRGAEIATKHLIDLGHTHIAHLRVGSGAGLRRFESFEATMRAHGLEPLSNDYLGPAVEHAGYTETLALLKEHPEVTAIFSSNDITAIGALGAARELGLRVPEDLSIIGYDNTPLAQTRLINLTTIDDNSIGVGYNAALLLLSMLDPEAPHPEIMHTLQPSLIERGTCAPREGHHHHHH | not failed
8 | MVKESGMASLLLENPYYGYRKPKDQLRSSLKNVSDLFVMGGALILESAALLHWLERDGFWPLGMTGISMGGHMASLAVTNWPKPIPLIPCLSWTTASSVFTTGVLSRAVNWRELEKQYATHTVYEEEIISMLEYCGTDSFRMGQEFVKNAPGSFDGLDLTQELLQSGQQVALRSSYSGRPASDQDSSVLMGRRERDGLDQMLSAVSSSAPHLDMLHAKSIACGSGQRQSLQRESLCFMKGVMDECTHIANFSVPVDPSLIIIVQAKEDAYVPRTGVRSLQEIWPGCEVRYLNGGHISAYLFKQGLFRQAIYDAYDRFLHKYSSL | not failed
9 | MLKQIRPLYLLLYLTPLMFDIILLYTYLDNGIIYWLDSNYPFSPLILLRKILFYYWNDPFFPGAPLFYSQDSLFMGIIIFLLYNIFHFSLELSEFIYLLLFIYLSQVGFVKLLNIIFEILEKRYSSYFTLIAGLLGGFIYSWGFYSYTPPILGVNYPFFIFYMLFPLVLYFSIKYIFKEKVISFSLIILYLILASGTLFSEFTYLLWSIVLYLFTVVPIWLLSRKPSFVQFTVKNLVIALIVIVAGLEQLYQTYNASIGAYQVGVHGEFLGKPIVIYETEAQYKNFPLSSFISLYSPEKYEIIGVLIFVLIFATILFIKGKTGKFFAPLLFLLLIIGGLSTGIINVLPLYSLHSTPIGFIAIGLMYSIQYIFSGFPVSFVSSLIIGYTLLYILEYLGKRRNYIKILFILIILLLSSSYIYSFRAGEVHPEIRAFNLPVNATNIFYPPPELVSVGNYLSVHDEFYNVIEFPMQYAAGMYDNNGTKAVWYTIYPLSDYIMGQVIKSPALANNAIIKSLANSAIYPIYKYFPAFNITNITNYFVLLGAKYIVLNKQEYPGPGVPLGYAGGYPWNYTKFIEALARTPNITLVMENSYYNVYMINLNVSLLYPSEGLAENLSSDQLFFLYANNMLKAQKQSVIYGLGAINITNISGVHIRVVNDYCNEVYEIQVNASRPFYLVFDEGYSPLWEVTINGEINTHHYIANGYANAWLMPAGNYVATLKLSILQTVHITYLLVFLGFIILVLIYVLQRFKIFRYFKNY | failed
10 | MASPLYPSVLNNPLSSIVVTRDEFNAFHTIDRTLFSRLVFNLNRDVDQSFLAMCFLLFLEQSSYARDIIAYLVSLPNAFVDAVANEIGVCINLLYNVEFASTFFAADNDDNSMIPLLLRITGGKFTLRLINQQRKNFCAGVTKSWTDVCTRAFSDLCETAHRINREKQLALEREKFIEDMKKLRLSLQQEKSNRLSVQQVKIASPPPPRPHPPVEDETEKALREKETMEVKEKEGVLAADDRTVFLTFSKGYPISEAEVRVYFTRRFGEVIEAVEMQEVEANEQPLFAKMVMKLQCASMMDEIVSARFRNKFTIDGKHVWARKYVRKNPYPASSSTHF | failed
11 | MEITVIASSSIDEGIGSWDLKTGTEQLQFKPCASPAHGLTAVGEKFLASSQLSARNTSGSIFYWSWTKPQAEVKSYPVEPIKALAANNEGTYLVGGGISGDIYLWEVATGKLLKKWHGHYRSVTCLVFSGDDSLLVSGSQDGSIRVWSLIRLFDDFQRQQGNTLYEHNFNEHTMSVTDIVIDYGGCNAVIISSSEDRTCKVWSLSRGKLLKNIIFPSVINALALDPGGCVFYAGARDSKIYIGAINATSEYGTQVLGSVSEKGKAITCLAYCADGNLLISGSEDGVVCVWDPKSLRHVRTLIHAKGSRKGPVNNIQIVRKTIVANSNKTQVSWKSRGALIPPPLEKYERPVEDTMDGIVTVDPPPFSDVPVYSSFLSADLIDEQVKELQQQGSAATEMEMERLKLEYKRSLQMNEQWQKNYENLLQVVMEEEQIGGTN | failed
12 | MRMIIAFLLGCLGMFLTTGCAFVSVPLMSAPQPLAEQVLEGEGTKKILIVDISGAIGDQAKGGGLLSRGTPSTVSLVREVLLKAERDPKVAGLILRINSPGGTVTASDIIRHDLLAFKERRNLPVSACIMGIGASGGYYVATAADGITAHPTALTGSIGVLLMTFNVEGLLGKVGVEEKTIKSGGKKDLLSPFRRATPEEERLVQGVIDQFHGRFVDVVQARPGNRLSRHDLLTLADGRIFSAADALAAGLIDRIGYLDDVIASLRDRIGDPDARVVTYFRPGSYQGSIYAESAAEPSMADLLGGFDMTGGGQFMYLWRPW | failed
13 | MDVDTAFLNSTMDEPIYVKQPPGFVNERNPDYVWELYGGMYGLKQAPLLWNEHINNTLKKIGFCRHEGEHGLYFRSTSDGPIYIAVYVDDLLVAAPSPKIYDRVKQELTKLYSMKDLGKVDKFLGLNIHQSSNGDITLSLQDYIAKAASESEINTFKLTQTPLCNSKPLFETTSPHLKDITPYQSIVGQLLFCANTGRPDISYPVSLLSRFLREPRAIHLESARRVLRYLYTTRSMCLKYRSGSQLALTVYCDASHGAIHDLPHSTGGYVTLLAGAPVTWSSKKLKGVIPVPSTEAEYITASETVMEI | failed
14 | AKVVFYEKPGCVGNARQKALLTASGHELEVRNLLAEPWTRETLRPFFGDKPLIEWFNQSSPKVKAGAIDFAALGVEAALALMIEDPLLIRRPLMQSGDRREVGFDQATVHAWLG | failed
15 | MRINLQSLGCRLNEAELESWAREFQAAGHRLVSETGDADLIVLNSCAVTAEAVRKSRQMIRRTQRLSPRARLVLSGCYATLHGDEAAALGVDLVVSNADKSRLVEIAARELALEAMPEFSTEPGEAALFALGRQRAFVKVQDGCRYRCTFCIVTVARGEERSRLPAEVIREIRRLQAEGVQEVVLTGVHLGGYGSDLGLPLDALIRSILQETEIPRLRLGSLEPWDLPPGFFDLFENPRFMPHLHLPLQSGSDTVLKRMARRCKSEEFARLADHARRQVPDINITTDIIVGFPGETEREWEESLQFIETIGFGDIHVFTYSVREGTKAAAMGGHVPAEIKKERSRVLHELALGQKRALLGRFVGREMPVLWENRRDGADRGYTPNYLRVAIQTPETGLTNRITPVRLVKVDASGEFLWCGPVTLPPAAPADTRWRR | failed
16 | MAVDVPGIISPKTAEAASQLTDGIGGRAYLNSNGAILVTKIQLPSSTQVSNGTAYIYSGFSGGTESDIGFQYSDKYNVWKPYMKVGSKGQDQVQYLEGGSQFTNTKGFRPGSTVQLTIYKNLNGNTRATYWGTNNAGYNGRLISEISKTNVGSISKWKALATVATTGSRQSIKSNFSTSFTNITIDNKAITPVIDTQDFAKVTVSGNSVSLSVVKNLEHHHHHH | not failed
17 | MLRFKRKNFFKTINFKIALVFALLLLITLEIVGAIFVKQLESKNIQDFKQSVQIPTYIDNSLSEQLTVSSTRKANGQIKTILSNYNNTNVDEIQVVDSKGTIRGTSDVNDQSVVGQKTTDRNVKNAIYNNRTYTKSTYDTQNNGRYYVSIVPLYSSNSAGNSSQLVGVLYVRANMKSVYSTINNIMGIFVIASLAAMVLGLGIAIIIARAITRPIEEMKQQTQRIARGDYAGQVRVYSDDELGQLAKAINNLSIRVEESQESTEAERRRLDSVLSHMSDGVIATDRRGNITIINETASDFMDVTAEKAIGNSILDILKIRDDYSLRDLIENQDELMLDFSSNERDLILNAYFSLIQRESGFISGLVCVLHDVTEQQKIDNDRKQFVSNVSHELRTPLTSLRSYIEALSDGAWKDPEVAPGFLKVTQEETDRMIRMINELLSLSRMDSGTTRVDMELVNINEMFNYVLDRFDMILKKDDNPAKYYTIKREFTKRDLWVEIDTDKFTQVLDNIMNNAIKYSPDGGVVTCRLLETHNQVIISISDQGLGIPRADLGHVFDRFFRVDKARSRAQGGTGLGLAISKEVVQMLGGRIWVDSVEGKGSTFYISLPYEPYEEEDLWDDDSQA | failed
18 | MMVLRMKVEWYLDFVDLNYEPGRDELIVEYYFEPNGVSPEEAAGRIASESSIGTWTTLWKLPEMAKRSMAKVFYLEKHGEGYIAKIAYPLTLFEEGSLVQLFSAVAGNVFGMKALKNLRLLDFHPPYEYLRHFKGPQFGVQGIREFMGVKDRPLTATVPKPKMGWSVEEYAEIAYELWSGGIDLLKDDENFTSFPFNRFEERVRKLYRVRDRVEAETGETKEYLINITGPVNIMEKRAEMVANEGGQYVMIDIVVAGWSALQYMREVTEDLGLAIHAHRAMHAAFTRNPRHGITMLALAKAARMIGVDQIHTGTAVGKMAGNYEEIKRINDFLLSKWEHIRPVFPVASGGLHPGLMPELIRLFGKDLVIQAGGGVMGHPDGPRAGAKALRDAIDAAIEGVDLDEKAKSSPELKKSLREVGLSKAKVGVQH | not failed
19 | MNQLIFDFAAHDYPSFDKFLGTENAELVYVLRHKHGQFIYVWGEEGAGKSHLLQAWVAQALEAGKNAAYIDAASMPLTDAAFEAEYLAVDQVEKLGNEEQALLFSIFNRFRNSGKGFLLLGSEYTPQQLVIREDLRTRMAYCLVYEVKPLTDQEKIDALASMAAARQVTVDSEIFEYLLKHWRRDMDSLMMMLDTLDNYAVTMGKRITLPLLRQLLKQQETQLEHHHHHH | not failed
